# Test results reported in patent publication US20120148575A1.
# Experiments:
# Assay in all cases: SPR
# huFcgRIIIA - 158V = molecular target: huFcgRIIIA - 158V
# muFcgRIII = molecular target: muFcgRIII
# huFcgRIIb = molecular target: huFcgRIIb
# muFcgRIIb = molecular target: muFcgRIIb
# huFcRI = molecular target: huFcRI
# muFcgRIV = molecular target: muFcgRIV
# muFcgRI = molecular target: muFcgRI
# Chain of muFcgRIV (A0A0B4J1G0 21-203): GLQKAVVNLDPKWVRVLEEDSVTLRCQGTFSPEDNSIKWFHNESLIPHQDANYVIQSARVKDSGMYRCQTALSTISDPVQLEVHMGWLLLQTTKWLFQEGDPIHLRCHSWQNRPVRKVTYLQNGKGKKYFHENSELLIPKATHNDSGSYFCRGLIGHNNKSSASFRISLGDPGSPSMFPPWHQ
Substance,Kd (huFcgRIIIA - 158V),Kd (muFcgRIII),Kd (huFcgRIIb),Kd (muFcgRIIb),Kd (huFcRI),Kd (muFcgRIV),Kd (muFcgRI)
Control,574 nM,6360 nM,14500 nM,1470 nM,19 nM,–,–
Hu IgG1,–,3660 nM,–,1240 nM,–,253 nM,–
Hu IgG1 afuc,–,3960 nM,–,1260 nM,–,43 nM,397 nM
